Four molecules from patent US20240409645A1 (DUALYX, published 2024) can be followed below.

B1: DC00062 (other)
chain 1: EVQLVESGGGLVQTGGSLRLSCAASGGTFSRDAMAWFRQVPGKEREFVALISWSGATTNYADSVKGRFAISRDNGKNTVYLQMNRLKPADTAIYYCAADRRPMGSRSYFEPTEYDDWGQGTQVTVSSGGGGSGGGGSGGGGSQVQLVESGGGLVQPGGSLRLSCATSGFTFRNNFMSWVRQAPGKGLEWVSTISYGGESTTYAESVKGRFTISRDNAKNTLYLQMNNLKPEDTAVYYCAKATSYDSIRSGSRGQGTQVTVSSDKTHTCPPCPAPEAAGGPSVFLFPPKPKDTLMISRTPEVTCVVVDVSHEDPEVKFNWYVDGVEVHNAKTKPREEQYNSTYRVVSVLTVLHQDWLNGKEYKCKVSNKALGAPIEKTISKAKGQPREPQVYTLPPSRDELTKNQVSLTCLVKGFYPSDIAVEWESNGQPENNYKTTPPVLDSDGSFLLYSKLTVDKSRWQQGNVFSCSVMHEALHNHYTQKSLSLSPGK
chain 2: EVQLVESGGGLVQTGGSLRLSCAASGGTFSRDAMAWFRQVPGKEREFVALISWSGATTNYADSVKGRFAISRDNGKNTVYLQMNRLKPADTAIYYCAADRRPMGSRSYFEPTEYDDWGQGTQVTVSSGGGGSGGGGSGGGGSQVQLVESGGGLVQPGGSLRLSCATSGFTFRNNFMSWVRQAPGKGLEWVSTISYGGESTTYAESVKGRFTISRDNAKNTLYLQMNNLKPEDTAVYYCAKATSYDSIRSGSRGQGTQVTVSSGGGGSGGGGSGGGGSQVQLVESGGGLVQAGGSLTLSCAAPGRTFGTDVVGWFRQAPGKEREFVASISRSGDGIYYDDSVKGRFTISRNNAWNTVNLQMNSLKVEDTAVYYCAAGDGWSTYDYWGQGTQVTVSSGGGGSGGGGSGGGGSDKTHTCPPCPAPEAAGGPSVFLFPPKPKDTLMISRTPEVTCVVVDVSHEDPEVKFNWYVDGVEVHNAKTKPREEQYNSTYRVVSVLTVLHQDWLNGKEYKCKVSNKALGAPIEKTISKAKGQPREPQVYTLPPSRDELTKNQVSLTCLVKGFYPSDIAVEWESNGQPENNYKTTPPVLDSDGSFFLYSRLTVDKSRWQQGNVFSCSVMHEALHNHYTQKSLSLSPGK
B2: DC00064 (other)
chain 1: EVQLVESGGGLVQTGGSLRLSCAASGGTFSRDAMAWFRQVPGKEREFVALISWSGATTNYADSVKGRFAISRDNGKNTVYLQMNRLKPADTAIYYCAADRRPMGSRSYFEPTEYDDWGQGTQVTVSSGGGGSGGGGSGGGGSQVQLVESGGGLVQPGGSLRLSCATSGFTFRNNFMSWVRQAPGKGLEWVSTISYGGESTTYAESVKGRFTISRDNAKNTLYLQMNNLKPEDTAVYYCAKATSYDSIRSGSRGQGTQVTVSSDKTHTCPPCPAPEAAGGPSVFLFPPKPKDTLMISRTPEVTCVVVDVSHEDPEVKFNWYVDGVEVHNAKTKPREEQYNSTYRVVSVLTVLHQDWLNGKEYKCKVSNKALGAPIEKTISKAKGQPREPQVYTLPPSRDELTKNQVSLTCLVKGFYPSDIAVEWESNGQPENNYKTTPPVLDSDGSFLLYSKLTVDKSRWQQGNVFSCSVMHEALHNHYTQKSLSLSPGK
chain 2: QVQLVESGGGLVQPGGSLRLSCATSGFTFRNNFMSWVRQAPGKGLEWVSTISYGGESTTYAESVKGRFTISRDNAKNTLYLQMNNLKPEDTAVYYCAKATSYDSIRSGSRGQGTQVTVSSGGGGSGGGGSGGGGSQVQLVESGGGLVQAGGSLTLSCAAPGRTFGTDVVGWFRQAPGKEREFVASISRSGDGIYYDDSVKGRFTISRNNAWNTVNLQMNSLKVEDTAVYYCAAGDGWSTYDYWGQGTQVTVSSGGGGSGGGGSGGGGSEVQLVESGGGLVQTGGSLRLSCAASGGTFSRDAMAWFRQVPGKEREFVALISWSGATTNYADSVKGRFAISRDNGKNTVYLQMNRLKPADTAIYYCAADRRPMGSRSYFEPTEYDDWGQGTQVTVSSGGGGSGGGGSGGGGSDKTHTCPPCPAPEAAGGPSVFLFPPKPKDTLMISRTPEVTCVVVDVSHEDPEVKFNWYVDGVEVHNAKTKPREEQYNSTYRVVSVLTVLHQDWLNGKEYKCKVSNKALGAPIEKTISKAKGQPREPQVYTLPPSRDELTKNQVSLTCLVKGFYPSDIAVEWESNGQPENNYKTTPPVLDSDGSFFLYSRLTVDKSRWQQGNVFSCSVMHEALHNHYTQKSLSLSPGK
B3: DC00066 (other)
chain 1: EVQLVESGGGLVQTGGSLRLSCAASGGTFSRDAMAWFRQVPGKEREFVALISWSGATTNYADSVKGRFAISRDNGKNTVYLQMNRLKPADTAIYYCAADRRPMGSRSYFEPTEYDDWGQGTQVTVSSGGGGSGGGGSGGGGSQVQLVESGGGLVQPGGSLRLSCATSGFTFRNNFMSWVRQAPGKGLEWVSTISYGGESTTYAESVKGRFTISRDNAKNTLYLQMNNLKPEDTAVYYCAKATSYDSIRSGSRGQGTQVTVSSDKTHTCPPCPAPEAAGGPSVFLFPPKPKDTLMISRTPEVTCVVVDVSHEDPEVKFNWYVDGVEVHNAKTKPREEQYNSTYRVVSVLTVLHQDWLNGKEYKCKVSNKALGAPIEKTISKAKGQPREPQVYTLPPSRDELTKNQVSLTCLVKGFYPSDIAVEWESNGQPENNYKTTPPVLDSDGSFLLYSKLTVDKSRWQQGNVFSCSVMHEALHNHYTQKSLSLSPGK
chain 2: QVQLVESGGGLVQPGGSLRLSCATSGFTFRNNFMSWVRQAPGKGLEWVSTISYGGESTTYAESVKGRFTISRDNAKNTLYLQMNNLKPEDTAVYYCAKATSYDSIRSGSRGQGTQVTVSSGGGGSGGGGSGGGGSEVQLVESGGGLVQTGGSLRLSCAASGGTFSRDAMAWFRQVPGKEREFVALISWSGATTNYADSVKGRFAISRDNGKNTVYLQMNRLKPADTAIYYCAADRRPMGSRSYFEPTEYDDWGQGTQVTVSSGGGGSGGGGSGGGGSQVQLVESGGGLVQAGGSLTLSCAAPGRTFGTDVVGWFRQAPGKEREFVASISRSGDGIYYDDSVKGRFTISRNNAWNTVNLQMNSLKVEDTAVYYCAAGDGWSTYDYWGQGTQVTVSSGGGGSGGGGSGGGGSDKTHTCPPCPAPEAAGGPSVFLFPPKPKDTLMISRTPEVTCVVVDVSHEDPEVKFNWYVDGVEVHNAKTKPREEQYNSTYRVVSVLTVLHQDWLNGKEYKCKVSNKALGAPIEKTISKAKGQPREPQVYTLPPSRDELTKNQVSLTCLVKGFYPSDIAVEWESNGQPENNYKTTPPVLDSDGSFFLYSRLTVDKSRWQQGNVFSCSVMHEALHNHYTQKSLSLSPGK
B4: DC00061 (other)
chain 1: QVQLVESGGGLVQPGGSLRLSCATSGFTFRNNFMSWVRQAPGKGLEWVSTISYGGESTTYAESVKGRFTISRDNAKNTLYLQMNNLKPEDTAVYYCAKATSYDSIRSGSRGQGTQVTVSSGGGGSGGGGSGGGGSEVQLVESGGGLVQTGGSLRLSCAASGGTFSRDAMAWFRQVPGKEREFVALISWSGATTNYADSVKGRFAISRDNGKNTVYLQMNRLKPADTAIYYCAADRRPMGSRSYFEPTEYDDWGQGTQVTVSSGGGGSGGGGSGGGGSDKTHTCPPCPAPEAAGGPSVFLFPPKPKDTLMISRTPEVTCVVVDVSHEDPEVKFNWYVDGVEVHNAKTKPREEQYNSTYRVVSVLTVLHQDWLNGKEYKCKVSNKALGAPIEKTISKAKGQPREPQVYTLPPSRDELTKNQVSLTCLVKGFYPSDIAVEWESNGQPENNYKTTPPVLDSDGSFLLYSKLTVDKSRWQQGNVFSCSVMHEALHNHYTQKSLSLSPGK
chain 2: QVQLVESGGGLVQAGGSLTLSCAAPGRTFGTDVVGWFRQAPGKEREFVASISRSGDGIYYDDSVKGRFTISRNNAWNTVNLQMNSLKVEDTAVYYCAAGDGWSTYDYWGQGTQVTVSSGGGGSGGGGSGGGGSQVQLVESGGGLVQPGGSLRLSCATSGFTFRNNFMSWVRQAPGKGLEWVSTISYGGESTTYAESVKGRFTISRDNAKNTLYLQMNNLKPEDTAVYYCAKATSYDSIRSGSRGQGTQVTVSSDKTHTCPPCPAPEAAGGPSVFLFPPKPKDTLMISRTPEVTCVVVDVSHEDPEVKFNWYVDGVEVHNAKTKPREEQYNSTYRVVSVLTVLHQDWLNGKEYKCKVSNKALGAPIEKTISKAKGQPREPQVYTLPPSRDELTKNQVSLTCLVKGFYPSDIAVEWESNGQPENNYKTTPPVLDSDGSFFLYSRLTVDKSRWQQGNVFSCSVMHEALHNHYTQKSLSLSPGK

The assay deals with T1, human IL-2 receptor (IL-2Rα/IL-2Rβ/γc) (human, UniProt P01589 22-272; P14784 27-551; P31785 23-369).
T1 sequence 1: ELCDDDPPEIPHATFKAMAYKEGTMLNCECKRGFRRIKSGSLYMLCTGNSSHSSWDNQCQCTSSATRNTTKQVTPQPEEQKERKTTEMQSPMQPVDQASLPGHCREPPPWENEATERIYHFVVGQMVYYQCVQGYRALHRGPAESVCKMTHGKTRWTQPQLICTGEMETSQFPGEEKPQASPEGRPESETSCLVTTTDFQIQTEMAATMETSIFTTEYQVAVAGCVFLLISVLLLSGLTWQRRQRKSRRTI
T1 sequence 2: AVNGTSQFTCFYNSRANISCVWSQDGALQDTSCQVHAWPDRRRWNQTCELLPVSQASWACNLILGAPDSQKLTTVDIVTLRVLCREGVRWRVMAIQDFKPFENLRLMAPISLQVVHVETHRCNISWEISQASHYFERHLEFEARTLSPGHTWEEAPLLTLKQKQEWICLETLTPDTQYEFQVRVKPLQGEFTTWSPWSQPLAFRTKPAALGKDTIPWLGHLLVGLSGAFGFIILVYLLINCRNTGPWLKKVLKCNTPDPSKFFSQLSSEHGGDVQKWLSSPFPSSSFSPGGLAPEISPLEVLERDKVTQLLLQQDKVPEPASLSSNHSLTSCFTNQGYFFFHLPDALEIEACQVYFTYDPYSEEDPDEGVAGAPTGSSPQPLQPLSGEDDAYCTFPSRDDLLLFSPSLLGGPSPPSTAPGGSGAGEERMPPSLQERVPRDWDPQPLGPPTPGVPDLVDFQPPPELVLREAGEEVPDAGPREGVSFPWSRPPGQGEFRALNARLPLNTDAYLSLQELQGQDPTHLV
T1 sequence 3: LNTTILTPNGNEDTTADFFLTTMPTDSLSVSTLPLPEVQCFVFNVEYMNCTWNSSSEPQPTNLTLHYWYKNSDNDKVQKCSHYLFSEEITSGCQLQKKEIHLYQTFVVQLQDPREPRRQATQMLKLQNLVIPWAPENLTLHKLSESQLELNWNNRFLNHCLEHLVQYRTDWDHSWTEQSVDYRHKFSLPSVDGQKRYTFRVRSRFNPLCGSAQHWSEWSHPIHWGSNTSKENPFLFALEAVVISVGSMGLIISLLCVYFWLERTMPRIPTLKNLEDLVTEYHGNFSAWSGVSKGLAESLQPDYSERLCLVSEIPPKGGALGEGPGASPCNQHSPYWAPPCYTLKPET
Briefly: cell-based or functional assay.
As to B1, the “EC50 (nM) pSTAT5, NK, human PBMCs” value worked out at 0.0307 nM; the “EC50 (nM) pSTAT5, Treg, human PBMCs” value was below 0.1 pM; the “Fold Max signal (% pSTAT5+) Treg/NK” value was 4 fold; the “Max signal (% pSTAT5+), NK” value worked out at 22 % pSTAT5+. Also, the “Max signal (% pSTAT5+), Treg” value stood at 93 % pSTAT5+ and the “fold EC50 NK/Treg” value was above 307 fold.

On to B2, for which the “EC50 (nM) pSTAT5, NK, human PBMCs” value turned out to be 0.186 nM; the “EC50 (nM) pSTAT5, Treg, human PBMCs” value was below 0.1 pM; the “Fold Max signal (% pSTAT5+) Treg/NK” value came to 2 fold; the “Max signal (% pSTAT5+), NK” value was 38 % pSTAT5+. The “Max signal (% pSTAT5+), Treg” value is 94 % pSTAT5+ and the “fold EC50 NK/Treg” value is above 1860 fold.

Regarding B3, the “EC50 (nM) pSTAT5, NK, human PBMCs” value came out at 0.178 nM; the “EC50 (nM) pSTAT5, Treg, human PBMCs” value is below 0.1 pM; the “Fold Max signal (% pSTAT5+) Treg/NK” value amounted to 4 fold; the “Max signal (% pSTAT5+), NK” value turned out to be 27 % pSTAT5+. The “Max signal (% pSTAT5+), Treg” value amounted to 96 % pSTAT5+ and the “fold EC50 NK/Treg” value was above 1780 fold.

Regarding B4, the “EC50 (nM) pSTAT5, NK, human PBMCs” value was 0.165 nM; the “EC50 (nM) pSTAT5, Treg, human PBMCs” value came to 0.00427 nM; the “Fold Max signal (% pSTAT5+) Treg/NK” value was 9 fold; the “Max signal (% pSTAT5+), NK” value stood at 5 % pSTAT5+. The “Max signal (% pSTAT5+), Treg” value was determined as 44 % pSTAT5+ and the “fold EC50 NK/Treg” value is 39 fold.
